Results as given in US20190276551A1.

Molecular target: human CD38 protein immobilised on AR2G biosensor (human) (UniProt P28907)
Experiment: Octet BLI, immobilised CD38

## Daratumumab scFv
  koff: 0.0044 s⁻¹
